Reference: patent publication US11584938B2, “Plant EPSPS mutant containing L195P and S247G mutations and encoding gene and use thereof” (GEVOTO LLC, priority 2017, dated 2023)

Test system: transgenic rice plants
Test: glyphosate resistance of the EPSPS mutant in transgenic rice plants sprayed with Roundup 41% ammonium glyphosate
Assay type: in vivo, rice (Nipponbare)
Summary of the method: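 EPSPS mutant genes were cloned into pGVP1 and introduced into Nipponbare rice embryo-derived calluses via Agrobacterium EHA105 (OD 0.2, 10 min infection, 2–3 days co-culture at 25 °C in the dark). Calluses went through recovery, two 14-day screening rounds at 30 °C, two differentiation rounds and rooting to regenerate transgenic plants.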

[1] = 1× dosage 1060 g/hectare glyphosate sprayed, recorded on 10th day
[2] = 2× dosage 2120 g/hectare sprayed to plants surviving 1×, recorded 10 days later
[3] = 5× dosage 5300 g/hectare sprayed to plants surviving 2×, recorded 10 days later
[4] = 20× dosage 21200 g/hectare sprayed to plants surviving 5×, recorded 10 days later

B1: R3: rice EPSPS mutant, SEQ ID NO: 34, mutations L214(195)P and P116(101)S (protein)
chain: MASNAAAAAAKAEEIVLQPIREISGAVQLPGSKSLSNRILLLSALSEGTTVVDNLLNSEDVHYMLEALKALGLSVEADKVAKRAVVVGCGGKFPVEKDAKEEVQLFLGNAGTAMRSLTAAVTAAGGNATYVLDGVPRMRERPIGDLVVGLKQLGADVDCFLGTECPPVRVKGIGGLPGGKVKLSGSISSQYLSALLMAAPLALGDVEIEIIDKPISIPYVEMTLRLMERFGVKAEHSDSWDRFYIKGGQKYKSPGNAYVEGDASSASYFLAGAAITGGTVTVQGCGTTSLQGDVKFAEVLEMMGAKVTWTDTSVTVTGPPREPYGKKHLKAVDVNMNKMPDVAMTLAVVALFADGPTAIRDVASWRVKETERMVAIRTELTKLGASVEEGPDYCIITPPEKLNITAIDTYDDHRMAMAFSLAACADVPVTIRDPGCTRKTFPNYFDVLSTFVRN
[1]
  %++&+++ (percentage of plant having medium and high glyphosate resistance to the total number of plants observed): 76.8%
  number of plants denoted by + (low glyphosate resistance): 18
  number of plants denoted by ++ (medium glyphosate resistance): 39
  number of plants denoted by +++ (high glyphosate resistance): 24
  number of plants denoted by − (no glyphosate resistance): 1
1× glyphosate dosage
  glyphosate resistance / survival of the rice transformed by the EPSPS, in words: had relatively high resistance to glyphosate
[2]
  %++&+++ (percentage of plant having medium and high glyphosate resistance to the total number of plants observed): 7.5%
  number of plants denoted by + (low glyphosate resistance): 59
  number of plants denoted by ++ (medium glyphosate resistance): 12
  number of plants denoted by +++ (high glyphosate resistance): 10
  number of plants denoted by − (no glyphosate resistance): 1
2× glyphosate dosage
  glyphosate resistance / survival of the rice transformed by the EPSPS, in words: had relatively high resistance to glyphosate
[3]
  &++&+++ (percentage of plant having medium and high glyphosate resistance to the total number of plants observed): 13.4%
  number of plants denoted by + (low glyphosate resistance): 59
  number of plants denoted by ++ (medium glyphosate resistance): 11
  number of plants denoted by +++ (high glyphosate resistance): 0
  number of plants denoted by − (no glyphosate resistance): 12
[4]
  &++&+++ (percentage of plant having medium and high glyphosate resistance to the total number of plants observed): 7.3%
  number of plants denoted by + (low glyphosate resistance): 28
  number of plants denoted by ++ (medium glyphosate resistance): 6
  number of plants denoted by +++ (high glyphosate resistance): 0
  number of plants denoted by − (no glyphosate resistance): 48

B2: R5: rice EPSPS mutant, SEQ ID NO: 38, mutations S267(247)G and P116(101)S (protein)
chain: MASNAAAAAAKAEEIVLQPIREISGAVQLPGSKSLSNRILLLSALSEGTTVVDNLLNSEDVHYMLEALKALGLSVEADKVAKRAVVVGCGGKFPVEKDAKEEVQLFLGNAGTAMRSLTAAVTAAGGNATYVLDGVPRMRERPIGDLVVGLKQLGADVDCFLGTECPPVRVKGIGGLPGGKVKLSGSISSQYLSALLMAAPLALGDVEIEIIDKLISIPYVEMTLRLMERFGVKAEHSDSWDRFYIKGGQKYKSPGNAYVEGDASSAGYFLAGAAITGGTVTVQGCGTTSLQGDVKFAEVLEMMGAKVTWTDTSVTVTGPPREPYGKKHLKAVDVNMNKMPDVAMTLAVVALFADGPTAIRDVASWRVKETERMVAIRTELTKLGASVEEGPDYCIITPPEKLNITAIDTYDDHRMAMAFSLAACADVPVTIRDPGCTRKTFPNYFDVLSTFVRN
[1]
  %++&+++ (percentage of plant having medium and high glyphosate resistance to the total number of plants observed): 84.2%
  number of plants denoted by + (low glyphosate resistance): 0
  number of plants denoted by ++ (medium glyphosate resistance): 6
  number of plants denoted by +++ (high glyphosate resistance): 10
  number of plants denoted by − (no glyphosate resistance): 3
1× glyphosate dosage
  glyphosate resistance / survival of the rice transformed by the EPSPS, in words: had relatively high resistance to glyphosate
[2]
  %++&+++ (percentage of plant having medium and high glyphosate resistance to the total number of plants observed): 63.3%
  number of plants denoted by + (low glyphosate resistance): 3
  number of plants denoted by ++ (medium glyphosate resistance): 6
  number of plants denoted by +++ (high glyphosate resistance): 4
  number of plants denoted by − (no glyphosate resistance): 6
2× glyphosate dosage
  glyphosate resistance / survival of the rice transformed by the EPSPS, in words: had relatively high resistance to glyphosate
[3]
  &++&+++ (percentage of plant having medium and high glyphosate resistance to the total number of plants observed): 42.1%
  number of plants denoted by + (low glyphosate resistance): 3
  number of plants denoted by ++ (medium glyphosate resistance): 8
  number of plants denoted by +++ (high glyphosate resistance): 0
  number of plants denoted by − (no glyphosate resistance): 8
[4]
  &++&+++ (percentage of plant having medium and high glyphosate resistance to the total number of plants observed): 0.0%
  number of plants denoted by + (low glyphosate resistance): 8
  number of plants denoted by ++ (medium glyphosate resistance): 0
  number of plants denoted by +++ (high glyphosate resistance): 0
  number of plants denoted by − (no glyphosate resistance): 11

B3: R4: rice EPSPS mutant, SEQ ID NO: 36, mutation S267(247)G (protein)
chain: MASNAAAAAAKAEEIVLQPIREISGAVQLPGSKSLSNRILLLSALSEGTTVVDNLLNSEDVHYMLEALKALGLSVEADKVAKRAVVVGCGGKFPVEKDAKEEVQLFLGNAGTAMRPLTAAVTAAGGNATYVLDGVPRMRERPIGDLVVGLKQLGADVDCFLGTECPPVRVKGIGGLPGGKVKLSGSISSQYLSALLMAAPLALGDVEIEIIDKLISIPYVEMTLRLMERFGVKAEHSDSWDRFYIKGGQKYKSPGNAYVEGDASSAGYFLAGAAITGGTVTVQGCGTTSLQGDVKFAEVLEMMGAKVTWTDTSVTVTGPPREPYGKKHLKAVDVNMNKMPDVAMTLAVVALFADGPTAIRDVASWRVKETERMVAIRTELTKLGASVEEGPDYCIITPPEKLNITAIDTYDDHRMAMAFSLAACADVPVTIRDPGCTRKTFPNYFDVLSTFVRN
[1]
  %++&+++ (percentage of plant having medium and high glyphosate resistance to the total number of plants observed): 66.7%
  number of plants denoted by + (low glyphosate resistance): 46
  number of plants denoted by ++ (medium glyphosate resistance): 62
  number of plants denoted by +++ (high glyphosate resistance): 44
  number of plants denoted by − (no glyphosate resistance): 7
1× glyphosate dosage
  glyphosate resistance / survival of the rice transformed by the EPSPS, in words: obviously superior to that of the rice seedlings transformed by R0
[2]
  number of plants denoted by + (low glyphosate resistance): 136
  number of plants denoted by ++ (medium glyphosate resistance): 10
  number of plants denoted by +++ (high glyphosate resistance): 2
  number of plants denoted by − (no glyphosate resistance): 11
2× glyphosate dosage
  glyphosate resistance / survival of the rice transformed by the EPSPS, in words: some of the transgenic rice seedlings transformed by R1 and R4 still survived
[3]
  &++&+++ (percentage of plant having medium and high glyphosate resistance to the total number of plants observed): 0.0%
  number of plants denoted by + (low glyphosate resistance): 67
  number of plants denoted by ++ (medium glyphosate resistance): 0
  number of plants denoted by +++ (high glyphosate resistance): 0
  number of plants denoted by − (no glyphosate resistance): 92
5× glyphosate dosage
  glyphosate resistance / survival of the rice transformed by the EPSPS, in words: some of the transgenic rice seedlings transformed by R1 and R4 still survived
[4]
  &++&+++ (percentage of plant having medium and high glyphosate resistance to the total number of plants observed): 0.0%
  number of plants denoted by + (low glyphosate resistance): 8
  number of plants denoted by ++ (medium glyphosate resistance): 0
  number of plants denoted by +++ (high glyphosate resistance): 0
  number of plants denoted by − (no glyphosate resistance): 151
20× glyphosate dosage
  glyphosate resistance / survival of the rice transformed by the EPSPS, in words: some of the transgenic rice seedlings transformed by R1 and R4 still survived
